Measurements published in patent US20260242735A1 (UNIVERSIT T BASEL, published 2026).

B1: Refmab #2 (antibody, V domains shown)
VH: QVQLVQSGAEVKKPGSSVKVSCKASGGTFSDYAISWVRQAPGQGLEWMGRIIPILGVADYAQKFQGRVTITADKSTRTAYMELSSLRSEDTAVYYCARNWADAFDIWGQGTMVTVSS
VL: DIQLTQSPSSLSASVGDRVTITCRASQGISSVLAWYQQKPGKAPKLLIYDASSLESGVPSRFSGSGSGTDFTLTISSLQPEDFATYYCQQFDSSITFGQGTKLEIK
notes: In the alanine scan antibodies were used as IgG or Fab
B2: Refmab #2 (antibody, V domains shown)
VH: B1 VH
VL: B1 VL
notes: The alanine scan used IgG or Fab
B3: Refmab #3 (antibody, V domains shown)
VH: QVQLVQSGAEVKKPGSSVKVSCKASGYTFTDYNMHWVRQAPGQGLEWIGYIYPYNGGTGYNQKFKSKATITADESTNTAYMELSSLRSEDTAVYYCARGRPAMDYWGQGTLVTVSS
VL: DIQMTQSPSSLSASVGDRVTITCRASESVDNYGISFMNWFQQKPGKAPKLLIYAASNQGSGVPSRFSGSGSGTDFTLTISSLQPDDFATYYCQQSKEVPWTFGQGTKVEIK
notes: as for B1
B4: Refmab #3 (antibody, V domains shown)
VH: B3 VH
VL: B3 VL
notes: as for B2
B5: Refmab #1 (antibody, V domains shown)
VH: EVQLVQSGAEVKKPGSSVKVSCKASGYTITDSNIHWVRQAPGQSLEWIGYIYPYNGGTDYNQKFKNRATLTVDNPTNTAYMELSSLRSEDTAFYYCVNGNPWLAYWGQGTLVTVSS
VL: DIQLTQSPSTLSASVGDRVTITCRASESLDNYGIRFLTWFQQKPGKAPKLLMYAASNQGSGVPSRFSGSGSGTEFTLTISSLQPDDFATYYCQQTKEVPWSFGQGTKVEVK
notes: In the alanine scan antibodies were used as IgG or Fab; also called hP67.6
B6: Refmab #1 (antibody, V domains shown)
VH: B5 VH
VL: B5 VL
notes: The alanine scan used IgG or Fab; also called hP67.6
B7: Refmab #4 (antibody, V domains shown)
VH: QVQLVQSGAEVKKPGESVKVSCKASGYTFTNYGMNWVKQAPGQGLEWMGWINTYTGEPTYADKFQGRVTMTTDTSTSTAYMEIRNLGGDDTAVYYCARWSWSDGYYVYFDYWGQGTSVTVSS
VL: DIVMTQSPDSLTVSLGERTTINCKSSQSVLDSSTNKNSLAWYQQKPGQPPKLLLSWASTRESGIPDRFSGSGSGTDFTLTIDSPQPEDSATYYCQQSAHFPITFGQGTRLEIK
notes: as for B1
B8: Refmab #4 (antibody, V domains shown)
VH: B7 VH
VL: B7 VL
notes: as for B2

Key:
Experiment in all cases: alanine scan, flow cytometry, HEK293-T;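 also: antibody binding to each alanine-substituted CD33 mutant expressed transiently in HEK293-T, read as fluorescence minus background, mean of duplicates, relative to wild-type CD33 set as 100%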
human CD33 Q228A = human CD33 Q228A (human, UniProt P20138 18-364)
human CD33 Q228A, sequence (P20138 18-364 Q228A limits assumed): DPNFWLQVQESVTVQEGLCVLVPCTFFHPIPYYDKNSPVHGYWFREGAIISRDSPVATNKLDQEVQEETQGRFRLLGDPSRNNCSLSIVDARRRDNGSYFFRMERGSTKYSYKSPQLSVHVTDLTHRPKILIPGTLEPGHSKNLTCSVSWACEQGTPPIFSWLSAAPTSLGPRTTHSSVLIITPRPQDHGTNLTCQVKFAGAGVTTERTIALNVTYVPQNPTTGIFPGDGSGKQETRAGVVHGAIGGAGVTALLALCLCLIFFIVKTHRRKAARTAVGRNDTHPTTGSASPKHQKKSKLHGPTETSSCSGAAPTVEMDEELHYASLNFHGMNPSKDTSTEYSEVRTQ

human CD33 G241A = human CD33 G241A (human, UniProt P20138 18-364)
human CD33 G241A, sequence (P20138 18-364 G241A limits assumed): as the sequence (P20138 18-364 Q228A limits assumed) above, with A211Q, G224A counted along it

human CD33 P175A = human CD33 P175A (human, UniProt P20138 18-364)
human CD33 P175A, sequence (P20138 18-364 P175A limits assumed): as the sequence (P20138 18-364 Q228A limits assumed) above, with P158A, A211Q counted along it

human CD33 V234A = human CD33 V234A (human, UniProt P20138 18-364)
human CD33 V234A, sequence (P20138 18-364 V234A limits assumed): as the sequence (P20138 18-364 Q228A limits assumed) above, with A211Q, V217A counted along it

human CD33 G264A = human CD33 G264A (human, UniProt P20138 18-364)
human CD33 G264A, sequence (P20138 18-364 G264A limits assumed): as the sequence (P20138 18-364 Q228A limits assumed) above, with A211Q, G247A counted along it

human CD33 F280A = human CD33 F280A (human, UniProt P20138 18-364)
human CD33 F280A, sequence (P20138 18-364 F280A limits assumed): as the sequence (P20138 18-364 Q228A limits assumed) above, with A211Q, F263A counted along it

human CD33 C276A = human CD33 C276A (human, UniProt P20138 18-364)
human CD33 C276A, sequence (P20138 18-364 C276A limits assumed): as the sequence (P20138 18-364 Q228A limits assumed) above, with A211Q, C259A counted along it

human CD33 I281A = human CD33 I281A (human, UniProt P20138 18-364)
human CD33 I281A, sequence (P20138 18-364 I281A limits assumed): as the sequence (P20138 18-364 Q228A limits assumed) above, with A211Q, I264A counted along it

human CD33 G245A = human CD33 G245A (human, UniProt P20138 18-364)
human CD33 G245A, sequence (P20138 18-364 G245A limits assumed): as the sequence (P20138 18-364 Q228A limits assumed) above, with A211Q, G228A counted along it

Row | Binder | Mean % WT Binding (human CD33 Q228A) | Mean % WT Binding (human CD33 G241A) | Mean % WT Binding (human CD33 P175A) | Mean % WT Binding (human CD33 V234A) | Mean % WT Binding (human CD33 G264A) | Mean % WT Binding (human CD33 F280A) | Mean % WT Binding (human CD33 C276A) | Mean % WT Binding (human CD33 I281A) | Mean % WT Binding (human CD33 G245A)
1 | B1 | 120% | 111% | 103% | 117% |  |  |  |  | 
2 | B2 |  |  |  |  | 105 % WT binding | 120 % WT binding | 103 % WT binding | 114 % WT binding | 112 % WT binding
3 | B3 | 157% | 128% | 106% | 88.7% |  |  |  |  | 
4 | B4 |  |  |  |  | 89 % WT binding | 99 % WT binding | 115 % WT binding | 91 % WT binding | 127 % WT binding
5 | B5 | 99.4% | 102% | 89.4% | 85.8% |  |  |  |  | 
6 | B6 |  |  |  |  | 95 % WT binding | 98.4 % WT binding | 83.4 % WT binding | 85 % WT binding | 84.3 % WT binding
7 | B7 | 112% | 109% | 106% | 107% |  |  |  |  | 
8 | B8 |  |  |  |  | 89.9 % WT binding | 92.3 % WT binding | 96.9 % WT binding | 122 % WT binding | 94.9 % WT binding
